Here are results for 23 sequences from a protein production outcome set (Wang et al. 2014).
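Further: failed if final PepcDB status was selected cloned or expressed and not failed if soluble or beyond.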

This data set in a line: label from the status in PepcDB records.
“SVMAEGTAVLRRNRPGTKAQDFYNWPDESFDEMDSTLAVQQYIQQNIRADCSNIDKILEPPEGQDEGVWKYEHLRQFCLELNGLAVKLQSECHPDTCTQMTATEQWIFLCAAHKTPKECPAIDYTRHTLDGAACLLNSNKYFPSRVSIKESSVAKLGSVCRRIYRIFSHAYFHHRQIFDEYENETFLCHRFTKFVMKYNLMSKDNLIVPILEEEVQNSVSGESEA”: the protein production entry is “failed”.
Then “SASLPIRHLTPRDLTACADLSEDRGWPREEHKWGLLLAAGKGYGIDDPEGGLVSACVVTEYGPQDRPDLGAIGMVLVAERHARQGIGRRLMRHVMAEMATTPLTLCATPFGRPLYEELGFKVVGHSEMVRGYFAP”, with “failed”; and “MDTSLPSAILNNMVTATLILDDGLAIRYANPAAELLFSQSAKRIVEQSLSQLIQHASLDLALLTQPLQSGQSITDSDVTFVVDGRPLMLEVTVSPITWQRQLMLLVEMRKID”, with “not failed”; and “MTQAATILRTGRKFDQVLRGAREVFMSDGFEGANVDDIARAAGVSKATLYSYFPDKRLLFVEVAQTECQLMAERILSMIDEDRPVREVLTITATQLVAFLISDFAQQVFRICLAERERFPELARAFYAAGPENGQRQICEYLEKAVTKGELVIADIPMAAEQFSELCKTRLWTRAVFGIQTRFTQAEIDEVALAAVDTFLARYGA”, with “failed”.
Consider “MPSFLEISPDKLNRLIGTPGAPRIIDVRTDEDFALDPRLVPGSIRRDHAEVASWADSIDADAVVVVCHRGAKLSHGVAAYLRHAGIEAESLAGGFEAWAAAGPAVPEAKLSRRDAQGRTVWVTRARPKIDRIACPWLIRRFIDPNAVFLFVPAPEVVAVGERFGAAPFDIEDVFWSHRGELCTFDVMVEEFGLASEPLLRLAQIVRAADTARLDLAPEASGLLAASLGLSRMYSDDLEQLEAGMLLYDAFFRWCRDATEETHNWPAPKKRALEHHHHHH”, for which the protein production entry was “not failed”.
Then “MAMWVFGYGSLIWKTGFPFDESLPGFIKGYRRVFHQGSTDHRGTPDFPGRTVTLEAAHEEHLEVREKQYDQKEYLDFFTDSNASEPAVAGVMVYIASPDKKSNNNYLGPAPLEDIAKQIVKAKGPSGPNRDYLFNLEEALAQLGFKDKHVTDLANQVRHILSESEELDIDATAATANNV”, with “failed”.
“MQFFTSDTHFFHKDLLGDSDFAPRPFASVDEMNQTIIDNWNARVAETDTVYHLGDIALYFTKPAIKSDEAVFNVLSQLNGHLELIKGNHDSRALFKYLAAHNFSDHGQPKFAFHDVGALIKYDHRQYYLTHYPMMLGIVNQIINLHGHIHHYAVPVKENINVGVDTPEQRYLTTSVPFGTPFSPTEIEQMVTGKAQEFREKQLEHHHHHH”: the protein production entry was “failed”.
Take “MLFLDSVAMKEKPEGREEYPFSVPAMRHLERLEFKTPITFFAGNNGSGKSTLLEGLAAGMTAYAIGNHGDVKGDLYLQHAETVAKAFYFARKKYPKIRMFLRAEDVLGYIRRQNENALDDFRWEREKALKKGEDFPEETPEIFRGIVRNNSLDRRSHGEGFLDIMHRRLHGAGLYFLDEPESPLSPQKQLELAAIIRQAADSGGQLIIATHSPVLLAIPEATIYYFDEDGITERLYDELENIAFLRRFLDRPSKYLDDLEHHHHHH”: the protein production result was “not failed”.
The entry for “MMKEFTPAPDSASIVSVTDRVKPVALGMGVTSVHFLGDRAAFVGGEENVAFVDSQGEITTVAVHGGGILSTASDGKRLVMGGDDGKVVSLDAKGEVTLLATDPKRRWIDAVALHADGAFAWSAGKTATVKSGKTEEKSLEVPSTVGGLAFAPKGLRLAIAHYNGATLWFPNMAASAEFLPWAGSHHAVTFSPDNKFLVTAMHEPALHGWRLADNRHMRMTGYPGRVRSMSWSAGGKALATSGADTVILWPFGSKDGPMGKEPAMLAPLQARVSVVACHPKNDILAAGYSDGTVLMVRLEDGAEILVRRNGTPPVAALAWNAKGTLLAFADENGDGGLLELLEHHHHHH” is “not failed”; for “MTLATRTVILPGGLQATLVHQPQADRAAALARVAAGSHHEPSRFPGLAHLLEHLLFYGGERYQDDDRLMGWVQRQGGSVNATTLARHSAFFFEVAADALADGVARLQEMLQAPLLLREDIQREVAVIDAEYRLIQQHEPSRREAAVRHAASAPAAFRRFQVGSADALAGDLAALQAALGDFHRTHYVARRMQLWLQGPQSLEALGELAARFAAGLAAGEPPPPAPPLRLGEFTALQLAVSSQPALWRCPLIALSDNVTLLREFLLDEAPGSLMASLRQRRLAGDVALNWLYQDRYLGWLALVFASDRPEEVDRQITHWLQALQQTTPEQQQHYYQLSRRRFQALSPLDQLRQRAFGFAPGAPPAGFADFCAALQAAPSVSLACQTVSPGEPVATQGFSLPLSRWRRRPESDPALAFAFYPQAAGDLVAKCPEKAAPLLHLPLPEEPPRLLLRPPFYCSPDQAEGLARGEQLRPLLAALRHAGGHGEWHLFDGSWQLTLQLPEPGRRPEAILQAILRQLALPVASLTPPPESIAIRHLMAQLPERLGTSGHQKGWLAALAGGSAEDAQWVARQLSLITAPVNPPMPAPAPCRRGVERLVYPGGDTALLVFIPLPDGASLAALRLLAQHCEPLFFQRLRVEQQIGYVVSCRYQRVADRDGLLMALQSPDRRAGELLRCGKDFLRQLAPMDEATFRPLQQRLAAQNRASRPPEARALSALRQEYGLPELTPQAVDALRVAEVADLAREMTRRRRRWQVLFTTGD” it is “failed”; for “MEPMQVVKQRRDAALNALVSGVPFIRFLNITFDRRGDELTGVLNFDDKLIGNPFLPAIHGGVTAAFLEVTAVITLSWAHLFERIESGDLAPEDILTDENMRFPKTIDFTIDYLRSGLPRDAYARAYISRAGRRYASVRVEAWQDHHDKLYAQGTGHFLMPLEHHHHHH” it is “failed”.
For “MKRLIGLVIVALVLLAACGSNNDKKVTIGVASNDTKAWEKVKELAKKDDIDVEIKHFSDYNLPNKALNDGDIDMNAFQHFAFLDQYKKAHKGTKISALSTTVLAPLGIYSDKIKDVKKVKDGAKVVIPNDVSNQARALKLLEAAGLIKLKKDFGLAGTVKDITSNPKHLKITAVDAQQTARALSDVDIAVINNGVATKAGKDPKNDPIFLEKSNSDAVKPYINIVAVNDKDLDNKTYAKIVELYHSKEAQKALQEDVKDGEKPVNLSKDEIKAIETSLAK”, the protein production entry was “not failed”.
For the sequence “MSLKRRQTNIIGVYLADYGGSFYGELLEGIKKGLALFDYEMIVCSGKKSHLFIPEKMVDGAIILDWTFPTKEIEKFAERGHSIVVLDRTTEHRNIRQVLLDNRGGATQAIEQFVNVGSKKVLLLSGPEKGYDSQERLAVSTRELTRFGIPYEIIQGDFTEPSGYAAAKKILSQPQTEPVDVFAFNDEMAIGVYKYVAETNYQMGKDIRIIGFDNSELGAFVQPRLATIAYSKHRWGMVAAEKIIHLMRGEAAESEHIYTRFIEGESFPSEGHHHHHH”, the protein production result is “not failed”.
In the case of “MSSSRSSWNTRAETGADVPVIRDIVRAAFPTPEEAALVDALRADAGAWIEGLSLVAVDDSDRPVGHALLTRCHIGDSPALCLAPVAVRPEHQNSGAGAAAVRAALAAAGRLGEHHVVVLGHPEYYPRFGFGRASAHGIRLSIDVPDEALMVLTLDAAHPLPAGTVRYAAPFGI”, the protein production result was “failed”.
Then “MNAKLEVNGELVKESYVYLLSRYLVLRQENFDTKEDKIPYNTLKHNSVAPADANFVNPNFDVVYSEAWIAVDDDNAVILEVPEIKNRYYTVQLLDGWGEVVTNINERNYPDHPYGKFAFVKKGTNPSVPSDAVKIELPSEKVKVLLRVEQKDDPEGAVKLQKAFKFDAPDNIKIKEPLEIPHFTNADFLLEEIYSNLEELLATYPDKMPKAAEFQDKARQVAAYIELGDEQKAEVRNLIVKEAIPYFTDGAKGFGTQKGGWSVTYVAGAFENDILARAIINYGGIWANSIQEALYFIGQQGTDGELLSGDKVYKIHFPKDQLPNGLAEAFWSVTLYGVPDYHVIPNKLNKFSINDYTGPKTNEDGSLSLYIAAEKPADVDPGNWLPSKAGKGFSLNFRLYVPKKEVLEGKVFLPPLEVL”, with “failed”; and “MHYPVLVNPRKPSLSRMPMKKPKRASAAKAKKGRKISASRSKPATKRPAKPPRRGASLDGTKDSAKIIRGLRSKLKAAERRVAELEAAADTDFLLEIPNRRGFERELTRAIAYMKRYRATGALIVLDVDRLKPINDSFGHAAGDEVLKAIVGALTRQVRASDVVGRLGGDEFALLLWNLNETDAKAKAAAFEQTIDELSFVFRSQNVTAGASAGVALLGAHSDAGRALEEADAAMYVRKARRRHEPRIRLVSN”, with “failed”; and “MLEINKIHQMNCFDFLDQVENKSVQLAVIDPPYNLSKADWDSFDSHNEFLPFTYRWIDKVLDKLDKDGSLYIFNTPFNCAFICQYLVSKGMIFQNWITWDKRDGMGSAKRGFSTGQETILFFSKSKNHTFNYDEVRVPYESTDRIKHASEKGILKNGKRWFPNPNGRLCGEVWHFSSQRHKEKVNGKTVKLTHITPKPRDLIERIIRASSNPNDLVLDCFMGSGTTAIVAKKLGRNFIGCDMNAEYVNQANFVLNQLEIN”, with “not failed”.
Consider “MGTITGEFTEHSAEAIAAMLSYIVQTEYEKKQLAKDTLQKYEEVVFLSQFANAVATCTGLQELIEVIRAEIRQVISVDEIFLYLYDQSQDSLTPLLYKTEESLQNFKAIEKIVERVLKLNQVEVIDDIQNDQDYLNQPSKIRSLLCYSLTVQNSIIGVLGLAHYQVKHFDSSDLNLFSTLTGQVAAAIRTAQYYETIKNYSQTLEIRLEHHHHHH”, for which the protein production result is recorded as “failed”.
Turning to “MELSAVGERVFAAEALLKRRIRKGRMEYLVKWKGWSQKYSTWEPEENILDARLLAAFEEREREMELYGPKKRGPKPKTFLLKAQAKAKAKTYEFRSDSARGIRIPYPGRSPQDLASTSRAREGLRNMGLSPPASSTSTSSTCRAEAPRDRDRDRDRDRERDRERERERERERERERERERGTSRVDDKPSSPGDSSKKRGPKPRKELPDPSQRPLGEPSAGLGEYLKGRKLDDTPSGAGKFPAGHSVIQLARRQDSDLVQCGVTSPSSAEATGKLAVDTFPARVIKHRAAFLEAKGQGALDPNGTRVRHGSGPPSSGGGLYRDMGAQGGRPSLIARIPVARILGDPEEESWSPSLTNLEKVVVTDVTSNFLTVTIKESNTDQGFFKEKR”, the protein production entry is “failed”.
As for “MADLALLVLTLLWGTTFALVKEALEIASPGVFLTARFGLAAVALLAAWALRPRAPLGDGFWRHGILLGLTMLVGFVLQTVALRHTTPARSGFITGLNVLVVPVVARWFLGRRVRPAFWVGVAFALAGLVMLTRPFTPGAVTEEVRFGDLLTLFCAVAYGLQVTFTSEWAPRHPLAPFVAVQVLVTLAGALVLAPLEGPRFDPAGAGHFALVVAFTGLVMTALAFFVMNWGQRHTTAVRAALIFSLEPAAAAVFSWLYYGEPLGPLDWAGGALMVLGVVAGEVGGVLEARAPRRARGERASTGPG”, the protein production entry is on record as “failed”.
As to “MAYDLWYWDGIPGRGEFVRLALEAGKIPYRDRAREPGEDMLDDMRRRRDTPPFAPPYLVADGMTIAQTANILLFLGVEHGLAPPDRAGRLWVNQLQLTIADLTAEAHDVHHPVAAGLYYEDQQDVALRRAADFRETRMPKFMQYFEQALDRPGGWLTDMGRWSYADLSLYHVVEGLLHAFPRRMRTLVHRYPRLMALHARVAELPELRGYLASDRRLPFGDGIFRHYPELDGA”, the protein production result was “not failed”.
Then “MSLRDFGLLVLICLIWAGSNIISKLVVAHWGVPPLYYAAVRFALVAALTLPWLLPAPRPTWRMVLVGLLMGGGNFALLFMGFQTASPSAASVVIQVGVPFTTLLSVLILGEKIRWRRGLGIALTLLGAVVVMWSPKGIELSAGLWLIVAAAFTGSLGAVMMKQIEGVKPLQFQAWVGFSSVWPLAAMSAFMEPGQVAAGFAAGWPFVAAVVFSAVVVSILAHTAYYGLIQRYEANLIAPLTLMTPLFTIGMGVVVTNDHFDLRMGIGAALALLGVLIIALRRNQVMPLLTSLRSRLQ”, with “failed”.
The entry for “MEKKFLDILVCPVTKGRLEYHQDKQELWSRQAKLAYPIKDGIPYMLENEARALSEEELKALEHHHHHH” is “not failed”.
